Experimental data from IntAct's records for PubMed 22114287.

B1: Platelet-activating factor acetylhydrolase IB subunit beta (Mus musculus), P63005 (parent)
chain: MVLSQRQRDELNRAIADYLRSNGYEEAYSVFKKEAELDMNEELDKKYAGLLEKKWTSVIRLQKKVMELESKLNEAKEEFTSGGPLGQKRDPKEWIPRPPEKYALSGHRSPVTRVIFHPVFSVMVSASEDATIKVWDYETGDFERTLKGHTDSVQDISFDHSGKLLASCSADMTIKLWDFQGFECIRTMHGHDHNVSSVAIMPNGDHIVSASRDKTIKMWEVQTGYCVKTFTGHREWVRMVRPNQDGTLIASCSNDQTVRVWVVATKECKAELREHEHVVECISWAPESSYSSISEATGSETKKSGKPGPFLLSGSRDKTIKMWDVSTGMCLMTLVGHDNWVRGVLFHSGGKFILSCADDKTLRVWDYKNKRCMKTLNAHEHFVTSLDFHKTAPYVVTGSVDQTVKVWECR
partner: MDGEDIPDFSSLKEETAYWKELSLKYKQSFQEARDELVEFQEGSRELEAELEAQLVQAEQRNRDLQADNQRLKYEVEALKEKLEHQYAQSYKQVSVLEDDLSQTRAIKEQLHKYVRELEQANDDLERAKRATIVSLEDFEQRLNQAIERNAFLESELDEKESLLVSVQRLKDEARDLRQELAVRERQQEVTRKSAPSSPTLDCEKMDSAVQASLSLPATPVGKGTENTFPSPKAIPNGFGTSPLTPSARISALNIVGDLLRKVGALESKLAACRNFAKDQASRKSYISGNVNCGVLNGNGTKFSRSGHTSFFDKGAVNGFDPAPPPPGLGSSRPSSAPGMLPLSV

Variants of: B1
Details: with ndel1_human NDEL1, Q9GZM8

Row | Variant | effect of a mutation on the interaction
1 | MVLSQRQRDELNRAIADYLRSNGYEEAYSVFKKEAELDMNEELDKKYAGLLEKKWTSVIRLQKKVMELESKLNEAKEEFTSGGPLGQKRDPKEWIPRPPEKYALSGHRSPVTRVIFHPVFSVMVSASEDATIKVWDYETGDFERTLAGHTDSVQDISFDHSGKLLASCSADMTIKLWDFQGFECIRTMHGHDHNVSSVAIMPNGDHIVSASRDKTIKMWEVQTGYCVKTFTGHREWVRMVRPNQDGTLIASCSNDQTVRVWVVATKECKAELREHEHVVECISWAPESSYSSISEATGSETKKSGKPGPFLLSGSRDKTIKMWDVSTGMCLMTLVGHDNWVRGVLFHSGGKFILSCADDKTLRVWDYKNKRCMKTLNAHEHFVTSLDFHKTAPYVVTGSVDQTVKVWECR [K147A] | with no effect
2 | MVLSQRQRDELNRAIADYLRSNGYEEAYSVFKKEAELDMNEELDKKYAGLLEKKWTSVIRLQKKVMELESKLNEAKEEFTSGGPLGQKRDPKEWIPRPPEKYALSGHRSPVTRVIFHPVFSVMVSASEDATIKVWDYETGDFERTLKGHTDSVQDISFDHSGKLLASCSADMTIKLWDFQGFECIRTMHGHDHNVSSVAIMPNGDHIVSASADKTIKMWEVQTGYCVKTFTGHREWVRMVRPNQDGTLIASCSNDQTVRVWVVATKECKAELREHEHVVECISWAPESSYSSISEATGSETKKSGKPGPFLLSGSRDKTIKMWDVSTGMCLMTLVGHDNWVRGVLFHSGGKFILSCADDKTLRVWDYKNKRCMKTLNAHEHFVTSLDFHKTAPYVVTGSVDQTVKVWECR [R212A] | disrupting interaction
